Results published in patent US20250034245A1 (FRED HUTCHINSON CANCER CENTER, published 2025).

B1: S8-ATX2A3 (antibody, V domains shown)
VH: QVQLQESGPGLVKPSETLSLTCTVSGASISGYYWNWIRQPPGKGLEWIGYIHYSGTTNYNPSLKSRITISLDTSENQFSLRLSSVTAADTAVYYCARDWYTGYDWEGFDYWGQGTLVTVSS
VL: QSVLTQPPSVSGAPGQRVSFSCTGTSSNIGTGFDVHWYRQLPGTAPKVLIYNNNNRPSGVPDRFSASKSGTSASLAITGLQAEDEADYYCQSYDSSLSGSVFGGGTRLTVL
notes: Only variable domains are tied to the name in the text; IgG1 format in ADCC and eosinophil assays; also called Sig8-2A3
B2: negative control mAb 13R4 (recognizing E. coli beta-galactosidase) (antibody, V domains shown)
VH: EVQLVESGGSLVKPGGSLRLSCAASGFTFSNYSMNWVRQAPGKGLEWISSISGSSRYIYYADFVKGRFTISRDNATNSLYLQMNSLRAEDTAVYYCVRSSITIFGGGMDVWGRGTLVTVSS
VL: QSVLTQPASVSGSPGQSITISCAGTSSDVGGYNYVSWYQQHPGKAPKLMIYEDSKRPSGVSNRFSGSKSGNTASLTISGLQAEDEADYYCSSYTTRSTRVFGGGTKLAVLG
B3: S8-ATX1H4 (antibody, V domains shown)
VH: QVQLVQSGTEVKYPGASVKVSCKASGYTFIDYGISWVRQAPGQGLEWMGWISAYNGNTDYAQKLQGRVTMTTDTSTSTAYMDLRSLRSDDTAVYYCAREGEGYCTYGVCPSFDYWGQGTLVTVSS
VL: EIVLTQSPGTLSLSPGERATLSCRASQSVSSSYLAWYQQKPGQAPRLLIYGASTRGTGIPDRFSGSGSGTDFTLTISRLEPEDFALYYCQQYGSSPYTFGQGTKLEIK
notes: Only variable domains are tied to the name in the text; Produced as recombinant human IgG1 and IgG4 (S228P), kappa light chain; also called Sig8-1H4
B4: S8-ATX1E1 (antibody, V domains shown)
VH: EVQLVESGGGLVQPGRSLRLSCAASGFMFDDYVMHWVRQAPGKGLEWVSGINWNSDNIGYADSVKGRFTISRDNAKNSLFLQMNSLRVEDTALYYCAKDIDAAAFDYWGQGTLVTVSS
VL: DIVMTQSPLSLPVTPGEPASISCRSSQSLLHSNGYSYLAWYLQKPGQSPQLLIYLVSNRASGVPDRFTGSGSGTDFTLKISRVEAEDVGVYYCMQALQTPWTFGQGTKVEIK
notes: Only variable domains are tied to the name in the text; Produced as recombinant human IgG1 and IgG4 (S228P), kappa light chain; also called Sig8-1E1
B5: S8-ATX2F10 (antibody, V domains shown)
VH: EVQLVESGGDLVKSGGSLRLSCAASGFTFSDAWMSWVRQAPGKGLEWVGRIQSKTDGGTTDYVAPVKGRFTISRDDSKDTLYLHMNSLTTEDTAVYYCTTDLYYYGSGSYFLGQGTLVTVSS
VL: DIQMTQSPSSLSASVGDRVTITCRASQNIITYLNWYQQKPGKAPKLLIYAASSLQSGVPSRFSGSGSGTDFTLTISSLQPEDFAIYHCQQSYNVPTTFGQGTKLEIK
notes: Only variable domains are tied to the name in the text; also IgG4 (S228P); also called Sig8-2F10; S8-2F10
B6: S8-ATX1E4 (antibody, V domains shown)
VH: QVQLVQSGSELKKPGASVKVSCKTSGYTFTSYAMNWVRQAPGQGLEWMGWINTNTGNPTYAQGFRGRFVFSLDTSVSTAYLQISSLKAEDTAVYYCARDKYSSSWYWFDSWGQGTLVTVSS
VL: DIQMTQSPSSLSASVGDRVTITCRPSQNISSYLNWYQQKPGKAPKLLIYAASSLRSGVPSRFSGSGSGTDFTLTVSSLQPEDFANYYCQQSYSTPYTFGRGTKLEIK
notes: Only variable domains are tied to the name in the text; Produced as recombinant human IgG1 and IgG4 (S228P), kappa light chain; also called Sig8-1E4
B7: S8-ATX1B6 (antibody, V domains shown)
VH: QVQLVESGGGVVLPGRSLRLSCAASGFTFNIYGMHWVRQAPGKGLEWVAVISYDGNNKEYADSVKGRFTISRDSSRNTLYLQMNSLRAEDTAVYYCAKRGYGSSSLEFWGQGTLVTVSS
VL: DIQMTQSPSSLSASVGDRVTITCRSSQDIRNDLGWYQQKPGKAPKRLIYASSNLQSGVPSRFSGSGSGTEFTLTISSLQPDDFATYYCLQHNTYPYTFGQGTKLEIK
notes: Only variable domains are tied to the name in the text; also made as IgG4 (S228P); also called Sig8-1B6; 11B6
B8: S8-ATX1B4 (antibody, V domains shown)
VH: QVQLVESGGGVVQPGRSLRLSCAASGFTFSIYGMHWVRQAPGKGLEWVAVISYDGNNKDYTDSVKGRFTISRDNSKNTLYLQMNSLTAEDTAVYYCAKRGYGSSSLEFWGQGTLVTVSS
VL: DIQMTQSPSSLSASVGDRVTITCRASQDIRNDLGWYQQKPGKAPKRLIYATSSLQSGVPSRFSGSRSGAEFTLTVSSLQPEDFATYYCLQHNTYPYTFGQGTKLEIK
notes: Only variable domains are tied to the name in the text; Produced as recombinant fully human IgG1 and IgG4 (S228P) with a kappa light chain; also called Sig8-1B4; 11B4

Assays:
[1] = biological target: T1, full-length human Siglec-8 (Siglec-8^FL) (human, UniProt Q9NYZ4 17-499); assay: flow cytometry on K562 cells expressing Siglec-8 FL (FIG. 9C)
T1 construct: whole, on cells; Expressed by lentiviral transduction on K562, RS4;11, TF-1, EOL-1 and other cells; the same id is used for Siglec-8 endogenously expressed on LUVA cells, HMC1.2 cells and primary human eosinophils; also called Siglec-8^Hu; SAF2
T1 sequence (Q9NYZ4 17-499): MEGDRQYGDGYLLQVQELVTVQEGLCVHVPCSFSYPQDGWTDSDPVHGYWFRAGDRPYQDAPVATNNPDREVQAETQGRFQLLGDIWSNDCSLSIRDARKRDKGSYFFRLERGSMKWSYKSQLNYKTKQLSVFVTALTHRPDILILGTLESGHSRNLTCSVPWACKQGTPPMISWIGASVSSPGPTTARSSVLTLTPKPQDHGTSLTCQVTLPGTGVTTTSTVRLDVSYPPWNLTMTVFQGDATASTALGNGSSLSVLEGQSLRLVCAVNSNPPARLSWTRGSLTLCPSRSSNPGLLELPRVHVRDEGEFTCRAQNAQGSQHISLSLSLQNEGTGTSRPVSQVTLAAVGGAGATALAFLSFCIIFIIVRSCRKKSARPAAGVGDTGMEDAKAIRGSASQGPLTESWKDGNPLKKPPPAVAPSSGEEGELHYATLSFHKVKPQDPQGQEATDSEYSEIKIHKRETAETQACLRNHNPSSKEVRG
Experimental: (§1) FIGS. 9A-9D. Human Siglec-8 mAbs were tested flow cytometrically against (FIG. 9A) parental human lymphoid RS4; 11 cells (endogenously lacking Siglec-8 expression) and a subline engineered to express Siglec-8^FL, (FIG. 9B) parental human mast cell line, HMC1.2, enriched for expression of endogenous Siglec-8; and (FIG. 9C) parental human myeloid K562 (endogenously lacking Siglec-8 expression) and sublines of K562 cells engineered to express either Siglec-8^FL, Siglec-8^ΔE2, or Siglec-8^V-set; and (FIG. 9D) primary human eosinophils, as indicated. A negative control without primary mAbs was included, as was, in some experiments, a negative control with a non-binding primary mAb (13R4).

[2] = biological target: T1, full-length human Siglec-8 (Siglec-8^FL); assay: flow cytometry on Siglec-8-expressing cells, in some experiments of FIGS. 9A-9D
Experimental: as §1

| Binder | binding result [1] | binding result [2] |
| --- | --- | --- |
| B1 | binds | – |
| B2 | – | no binding |
| B3 | binds | – |
| B4 | binds | – |
| B5 | binds | – |
| B6 | binds | – |
| B7 | binds | – |
| B8 | binds | – |
